The source of these data is US20240374585A1, “EPITHELIAL SODIUM CHANNEL (ENAC) INHIBITOR CONJUGATES AND METHODS FOR USE THEREOF” (Lung Therapeutics, Inc., priority 2021, published 2024).

Where two headings read alike, the source gives them in different places. A value given as a limit tells only on which side of the number the result lay.

What is called MRT last is a mean duration of stay, worked out from the concentration-time curve. The AUC(0-t) is the area under the concentration-time curve up to a stated or last time point. A lower AUC(0-t) goes with low exposure. The term Tmax denotes the time from dosing to the highest level.

The data set can be described thus: Pharmacokinetics in blood, lung tissue and BALF of rats after intratracheal administration. The data set is classed as in vivo. How it is done:
The pharmacokinetic profile of the conjugates of the present invention was determined in blood and lung tissue of rats.
Peptide Conj. 8 (SEQ ID NO: 45) and Conj. 9 (SEQ ID NO: 46) were formulated in 0.9% saline and intratracheally administered to 5-7 week-old rats (Sprague Dawley; male; 224-250 g). The pharmacokinetic profile of the peptide conjugates was then determined in blood and lung tissue.
For subgroup A, whole blood samples were collected from animals at 0.083, 0.25, and 0.5 hours following drug administration and for subgroup B, whole blood samples were collected at 0.75, 1, and 2 hours following drug administration for plasma analysis. Lung and bronchoalveolar lavage fluid (BALF) were collected at 0.5 and 2 hours following drug administration.
Whole blood was collected by tail nick at the predetermined time points and then maximal volume by cardiac stick for the final time point. The plasma was spun and collected within 30 minutes of collection. Upon euthanasia of the animal, a necropsy was performed and lungs harvested and weighed for analysis. After weighing the lungs, BALF was collected with 0.5 mL of 0.9% saline. The lungs were then reweighed after BALF collection. Lung, BALF, and plasma samples were frozen until analysis.
Frozen lung tissue was homogenized using a Precellys Evolution tabletop homogenizer (3×6500 rpm) with 4× dilution using normal rat plasma. 50 μL aliquots of homogenized lung tissue was then transferred into a 96 well plate for extraction with methanol. Harvested BALF was transferred in 25 μL aliquots into a 96 well plate and diluted with 25 μL of rat plasma before extraction with methanol. Plasma samples were transferred in 50 μL aliquots into a 96 well plate for extraction with methanol.
Standards were prepared by producing a working stock solution of Conj. 8 and Conj. 9 at 1 mg/mL. The Conj. 8 assay was performed using Conj. 9 as an internal standard at 1000 ng/mL. The Conj. 9 assay was performed using Conj. 8 as an internal standard at 1000 ng/mL.
Extraction was performed by direct precipitation with 3 volumes (150 μL) of methanol containing 1000 ng/ml of Conj. 8 and Conj. 9 as an internal standard. The plate was vortexed, followed by centrifugation (10 minutes at 4° C. and 2500 g) and dried down under heated nitrogen. Reconstitution was in 100 μL of initial mobile phase A (0.1% TFA: 0.1% FA in water) with 5% of mobile phase B (CAN, 0.1% TFA: 0.1% FA), before placing in an autosampler.
Plasma, lung, and BALF samples were analyzed for Conj. 8 and Conj. 9 by liquid chromatography with tandem mass spectrometry (LC/MS/MS) (API 4000; Kinetex® 2.6 μm C18 Column 50×2.1 mm; column temp.=50° C.; mobile phase A-0.1% TFA: 0.1% FA in water; mobile phase B-ACN, 0.1% TFA: 0.1% FA; flow rate-0.25 mL/min). Pharmacokinetic parameters were derived using sparse sampling noncompartmental analysis methods of Phoenix WinNonLin® version 8.0 (Certara USA, Inc.).
Tmax, the time after dosing at which the maximum concentration was observed; Cmax, the maximum observed concentration measured after dosing; AUClast, the area under the concentration versus time curve from the start of dose administration to the last observed quantifiable concentration calculated using the log/linear trapezoidal method; and MRTlast, mean residence time as defined by AUMClast/AUClast.

Where [1] appears, read: male, Sprague Dawley, bronchoalveolar lavage fluid (BALF), other: intratracheal; BALF; rat, IT, 5 mg/kg.
Where [2] appears, read: male, Sprague Dawley, lung tissue, other: intratracheal; Lungs; rat, IT, 5 mg/kg.
Setting [3] is: male, Sprague Dawley, lung, other: intratracheal; Lungs; rat, IT, 5 mg/kg.
Setting [4] is: male, Sprague Dawley, other: intratracheal; BALF; rat, IT, 5 mg/kg.
[5] abbreviates: male, Sprague Dawley, other: intratracheal; Plasma; rat, IT, 5 mg/kg.

Turning to `CC(=O)N[C@@H](Cc1cn(CCCCNC(N)=NC(=O)c2nc(Cl)c(N)nc2N)nn1)C(=O)NCCCCCC(=O)N[C@@H](C)C(=O)N[C@@H](CO)C(=O)N[C@@H](Cc1c[nH]cn1)C(=O)N[C@@H](CC(C)C)C(=O)N[C@@H](CCCNC(=N)N)C(=O)N[C@@H](CCCCN)C(=O)N[C@@H](CC(C)C)C(=O)N[C@@H](CCCNC(=N)N)C(=O)N[C@@H](CCCCN)C(=O)N[C@@H](CCCNC(=N)N)C(=O)N[C@@H](CC(C)C)C(=O)N[C@@H](CC(C)C)C(N)=O` [Conjugate 8], where the note is “all plasma samples; rat, IT, 5 mg/kg”, the “plasma concentration (limit of quantitation)” value is reported as less than 25 ng/mL. In addition, the MRT last amounted to 75.6 min under setting [1] and 69.6 min under setting [2]. Under “male, Sprague Dawley, bronchoalveolar lavage fluid (BALF); 0.5 h; rat, IT, 5 mg/kg; read-out: BALF concentration”, the level at 0.5 h was determined as 2910 ng/mL. The level at 2 h (male, Sprague Dawley, bronchoalveolar lavage fluid (BALF); 2 h; rat, IT, 5 mg/kg; read-out: BALF concentration) came out at 3990 ng/mL. Further, the exposure AUC(0-t) under setting [3] was 22500 ng·h/mL and the AUC(0-t) under setting [4] was 5910 ng·h/mL. The Tmax is, setting by setting: under setting [3], 120 min; under setting [4], 120 min. The Cmax by setting is: (male, Sprague Dawley, rat, BALF, other: intratracheal, 5 mg/kg, BALF, IT, read-out: Cmax) 3990 ng/mL; (male, Sprague Dawley, rat, lung, other: intratracheal, 5 mg/kg, Lungs, IT, read-out: Cmax) 13200 ng/mL; (male, Sprague Dawley, rat, lung, other: intratracheal, 5 mg/kg, at both 0.5 h and 2 h, IT, read-out: approximate mean Cmax concentration in lung tissues) roughly 13000 ng/mL.
In the case of `CC(=O)N[C@@H](Cc1cn(CCCCNC(N)=NC(=O)c2nc(Cl)c(N)nc2N)nn1)C(=O)NCCCCCC(=O)N[C@H](C(=O)N[C@@H](CO)C(=O)N[C@@H](CCCCN)C(=O)N[C@@H](CCCNC(=N)N)C(=O)N[C@@H](CCCNC(=N)N)C(N)=O)C(C)C` [Conjugate 9, Ac-(AmilCC2-Pgy)-Ahx-VSKRR-NH2], the MRT last runs as follows: under setting [1], 39.8 min; under setting [2], 55.9 min; under setting [5], 29.5 min. The time of peak concentration (Tmax) by setting is: (male, Sprague Dawley, inhaled or intranasal; Plasma; rat, IT, 5 mg/kg) 30 min; under setting [3], 30 min; under setting [4], 30 min. The AUC(0-t) is, setting by setting: under setting [3], 362 ng·h/mL; under setting [4], 2380 ng·h/mL; under setting [5], 293 ng·h/mL. In addition, the Cmax runs as follows: (male, Sprague Dawley, lung, other: intratracheal; Lungs; rat, IT, 5 mg/kg; read-out: Cmax) 352 ng/mL; (male, Sprague Dawley, other: intratracheal; BALF; rat, IT, 5 mg/kg; read-out: Cmax) 4290 ng/mL; (male, Sprague Dawley, other: intratracheal; Plasma; rat, IT, 5 mg/kg; read-out: Cmax) 2290 ng/mL.
